Laboratory results taken from the nanobody polyreactivity screen of Harvey et al. (2022).

Test: yeast display, Sf9 membrane polyspecificity reagent, FACS + sequencing; frameworks hold sequencing errors
In short: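 Galactose-induced (36–48 hours) yeast carrying a synthetic nanobody display library were exposed to 10% biotinylated, detergent-solubilized Sf9 membrane reagent at 4 °C for 1 hour. FACS followed streptavidin microbead enrichment, using low and high (top ~1%) gates for expression (anti-HA) and reagent binding (streptavidin). Colony PCR, MiSeq 2 × 250 sequencing and CDR-length filtering followed. Labels for polyreactivity reflect the gate of origin.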

Row | Sequence | polyreactivity (PSR sort gate)
1 | QVQLVESGGGLVQARGSLRLSCAASGIIRSNAMGWYRQAPGKERELVAVISSSGGRTYYADSVKGRFTISRDNAKNTVYLQMTSLKPEDTAVFYCPAQVQVGAFSYYYWGQGTQVTVSS | high polyreactivity
2 | QVQLVESGRGLVQAGGSLRLSCAASGSTFLGNAMGWYREAPGKARELVAAITSAGSTYYADSVKGRFTISRDNAKNTVYLQMNSLKPEDTAVYYCNADSTWGGYGFDDWGQGTQVTVSS | low polyreactivity
3 | QVHLVESCGGLVQAGGSLRLSCAASGSTFTYNVMGSYRQAPGKERELVAAISWSGGSTFYADSVKGRFTISRDNAKNTVYLQMNSLKPEDTAVYYCNKDHLVYPSEFYYWGQGTQVTVSS | low polyreactivity
4 | QVQLVESAGGLVQAGGSLRLSCAASGRTFKYYAMGWYRQAPGKERELVAAISRSGGSTYADSVKGRFTISRDNAKNTVYLQMNSLKPDETAVYYCAAYSGVGYLWFDYWGQGTQVTVSS | low polyreactivity
5 | QVQLVESGGGLVQAGGSLRYICAASGFTFRPKVMGWYRQAHGKERELVAAISGSGGSTYYADSVKGRFTISRDNAKNTVYLQMNSLKPEDTAVYYSKDFPAFYDFGYWGQGTQVTVSS | high polyreactivity
6 | QVQLVESGGGLVQAGGSLRLTCAASGIIFYGYAMGCYRQAPGKERELVADISFSGGRTYYSDSVKGRFTISRDNAKNTVYLQMNRLKQEDTAVYYCAKRRFYRTSQYVKYDYWGQGTQVTVSS | low polyreactivity
7 | QVQLVESGGGLVQAGGSLRLSCAASGITFYFNTMGWYRQAPGKERELVASIRNTGSTYADSVKGRFTISRDNAKNTVYLQMNSLKPEDTAVYYCAARRRKYYRGEYGYWGQGTQVTVSS | high polyreactivity
8 | QVQLVESGGGLVQAGGSLRLSCAASGGLFSVYAMGWYRQAPGKERELVASITVSGGSTSYADSVKGRFTISRDNAKNTVYLQMYSLKPEDTAVYYCNTDFAQAHTLSWYEDMDYWGQGTQVTVSS | low polyreactivity
9 | QVQLVESGGGLVQAGGSLRLSCAASGSTVAYYAMGWYRQAPGKERELVAAITIDGRTSYADSVKGRFTISRDNAKNTVYLQMNSLKREDTAVYYCARGYFPYGYPWRWGYDRFDYWGQGTQVTVSS | low polyreactivity
10 | QVHLVESGGGLVQPGGSLRLSCAASGNTFQSYARGWYRQAPRKEREFVAAIRQSGGSTYYAESLKGRFTISRDNSKYSVYLLMKRLKPEDTAVYYCGTGRSRVYNGRGDYWGQGTQVNVSS | high polyreactivity
11 | QVQLVESGGGVVQAGGSLRLTCAASGRTCPIYAMGWYRQAPGKERELVATITWNDGNTYYADSVKGRFTISRDNAKNTVYLQMNCLKPEDTAVYYCAAKGGWPWHYHYQKNSEYDYWGQGTQVTVSS | low polyreactivity
12 | QVQLVESGGCLVQAGGSLRLSCAASGSIFWSYSMGWYRQAPGKERELVAAISSGGSTNYADSVKGRFTISRDNAKNTVYLQMNSLKPEDTAVYYCSARFYTTSVRRKRYDYWGQGTQVTVSS | high polyreactivity
13 | QVQLVESGGGLVQAGGSLRLSCAASGSTFYFNAMGWYRPAPGKERELVAAIDWSGGSTYYADSVKGRFTISRDNAKNTVYLQMNSLKPEDTAVYYCAADISVGRYGDMDYYYKVDYWGQGTQVTVSS | low polyreactivity
14 | QVQLVESGGGLVQAGGSLRLSCAASGFTFNRYAMGWYRQAPGKERELVAAISWSGTSTYYADSVKGRFTISRDNAKNTVYLQMNSLKPEDTAVYYCATRQTHSYDYWGQGTQVTVSS | high polyreactivity
15 | QVQLVESGGGLVQAGGSLRLSCAASGSTFSQNAMGWYRQAPGKERELVDAITSGGITYYADSVKGRFTISRDNAKNTVYLQMNSLKPEDTAVYYCNADAIVSPYRLWTVTYYYWGQGTQVTVSS | low polyreactivity
16 | QVQLVESGGGLVQAGGSLRLSCAASGFTLDWYAMGWYRQAPGKERELVAAIWSAGTTYYADSVKGRFTISRDNAKNTVYLQMNSLKPEDTAVYYCATVSDYDFGLYDYWGQGTQVTVSS | low polyreactivity
17 | QVQLVESGGGLVQAGGSLRLSCAASGRTFVYYAMGWYRPAPGKERELVAAISSRGGSTYYADSVKGRFTISRDNAKNTVYLQMNSLKPEDTAVYYCAAVKGPERPTSPYDYWGQGTQVTVSS | high polyreactivity
18 | QVQLVESGGGLVQAGGSLRLSCAASGFTSYLYTMGWYRQAPGKERELVAAISNSGGNTYYADSVKGRFTISRDNAKNTVYLQMNSLKPEDTAVYYCAARLFAAKYRYGYWGQGTQVTVSS | high polyreactivity
19 | QVQLVESGGGLVQAGGSLRLSCAASGGIFHNYAMGWYRQAPGKERELVAAITTSDGSTYYEDSVKGRFTISRDIAKNTVYLEMNSLKPEDTAVYYCNAEYLYTVYFDDGGFIMDYWGQGTQVTVSS | low polyreactivity
20 | QDQLVESGGGLVQAGGSLRLSCAASGRTFYRNAMGWYRQAPGKERELVAAISGSGVRTYYADSVKGRFTISRDNAKNTVYLHMNSLKPEDTAVYYCARSVTWFRGRFSPDYGSWGQGTQVTVSS | high polyreactivity
21 | QVQLVESGGGLVQAGGSLRLSCAASGNTLPQNAMGWYRQAPGKERELVAAISRSGGSTYYADSVKGRFTISRDNAKNTVYLQMNSLKPEDTAVYYCAAKLTVSGYRYGYWGQGTQVTVSS | high polyreactivity
22 | QVQLVESGVGLVQAGGSLRLSCAASGFTFKSYTMGWYRQAPGKERELVANISRRGGSTYYADSVKGRFTISRDTAKNTVYLQMNRLKPEDTAVYYCAADAYGFLYTTYRYFYWGQGTQVTVST | high polyreactivity

Row | Sequence | polyreactivity (PSR sort gate)
23 | QVQLVETGGGLVQAGGSLRLSSAASGITSNSYAMGWYRQAPGKERELVATITSGGSTNYADSVKGRFTITLDNAKNSVYLQMNSLKPEDTAVYYCNREYWLPTQYDYWGQGTQVTVSS | low polyreactivity
24 | QVQLVESGGGLDQAGGSLRLSCAPSGYTFNVYSMGWYRQAPGNESELVAGISSYGGSTYYADSVKGRFTISRDNAKNTVYIQMNSLKPEDTAVYYCAARSALYPKYESWGQGTQVTVSS | low polyreactivity
25 | QVQLVESGGGLVQAGGSLRLSCAASGSTFITNAMGWYRQAPGKERELVAAISSSGGSTYYADSVKGRFTISRDNAKNTVYLQMNSLKPEDTAVYYCNAVPYVPRFDYWGQGTQVTVSS | low polyreactivity
26 | QVQLVESGGGLVQAGGSLRLSCAASGRIFDYNAMGWYRQVPGKERELVAAITKDDGSTYYADSVKGRFTISRDNAKNTVYLQMTSLKPEDTAVYYCAADFYWTYVDIWYDYWGHGTQVTVSS | low polyreactivity
27 | QVHLVESGGGLVQAGGSLRLICAASGRIYTFYAMGWYRQAPGKERHLVAAIRGSSVSTYYADSVKGRFTISRDNAKITVYLQMNSLKPEDTAVYYCAADIYLWNSEYYYWGQGTQVTVSS | low polyreactivity
28 | QVQLVESGGGLVQAGGSLRLSCAASGRTFRYYAMGWYRQAPGKERELVAAISWSGSSTYYADSVKGRFTISRDNAKNTVYLQMNSLKAEDTAVYFCNAKGVRGKYFDYSRVSAYDYWGQGTQVTVSS | low polyreactivity
29 | QVQLVESGGGLVQAGGSLRLSCAASGRIFSVYAMGWYRQAPGTERELVAVITTSGGSTYYADSVKGRFTISRGNAKNTVYLQMNSLKPEDTAVYYCNAEPWSYAIGSYEYWGQGTQVTVSS | high polyreactivity
30 | QVQLVESGGGLLQAGGSLRLSCAASGRNFKYYAMGWYRQAPGKEREFVAAISRSGGRTYYADSVKGRFTISRDNAKNTVYLQMNSLKPEDTAVYYCAAQPSSYVYYRQPFHYWGQGTQVTVSS | high polyreactivity
31 | QVQLVESGGGLVQAGGSLRLSCAASGFTFLYYDMGWYRQAPGKERELVAAITSSGTSTYYADSVKGRFTISRDNAKNTVYLQMNSLKPEDTAVYYCAVLYTYAGRHRYGYWGQGTQVTVSS | high polyreactivity
32 | QVQLVESGGGLVHAGGSLRLSCAASGSIFVVYTMGWYIQAPGKERELVADISASGGRTYYADSVKGRFTISSDNAKNTVYLKMNRLKPEDTAVYYCARVWYSSYSSESYSDHDYWGQGTQGTVSS | high polyreactivity
33 | QVQLVESGGGLVQAGGSLRLSCAASGIIFRLYAMGWYRQAPGKERELVAAITSRGGSTYYADSVKGRFTISRDNAKNTVYLQKNSLKPEDTAVYYCAARPVYSGYDYWGQGPQVTVSS | high polyreactivity
34 | QVQLVESGGGLVQAGGSLRLSCAASGFIFRYYAMGWSRQAPGKERELVAVISSNGARTSYADSVKGRFTISRDNAKNTVYLQMNSLKPEDTAVYYCNARAWSRFPPVGHDYWGQGTQVTVSS | high polyreactivity
35 | QVQLEESVGGLVQAGGSLRLSCAASGFIFPYYTMGWYRQAPGKERELVAAISRTAVGTYYADSVKGRFTISRDNAKNTVYLQMNSLKPEDTAVYYCAVVTQRKYDYWGQGTQVTVSS | high polyreactivity
36 | QVQLVESGGGLVQAGGRLRLTCAASGSIFLEYTMGWSRQAPGKEREVVASISWGGGSTYYADSVKGRFTISRDNAKNTVYLQMNSLKPEDTAVYYCAAVTKLSGIRYNYWGQGTQVTVSS | low polyreactivity
37 | QVQLEESGGGLVQAGGSLRLSCAASGSTFDRNTMGWYRQAPGKERELVAAITWSSGSTYYADSVKGRFTISRDNAKNTVYLQMNSLKPEDTAVYYCAADPIRYRSRHKYGYWGQGTQVTVSS | low polyreactivity
38 | QVQLVESGGGLVQAGGSLRLSCAASGFTFPQYAMGWYRQAPGKERELFAAISKRSGGTRYADSGKGRFTISRDNSKNTVYLHMKSLKPEDTAVNYCINYGQVPGYFTLEYLGQGTQVTVSS | high polyreactivity
39 | QVQLVESGGGLVQAGGSLRLSCAASGRIFYQYAMGWYRQAPGKERELVAAITRGGNTYYADSVKGRFTISRDNAKNTVYLQMNSLKPEDTAVYYCNARWHTTGYRYDYWGQGTQVTVSS | high polyreactivity
40 | QVQLVESGGGLVQAGGSLRLSCAASGSTLRWNAMGWYRQAPGKERELVAAITYSGGSTYYADSVKGRFTISRDNAKNTVYLQMNSLKPEDTAVYYCAADSYRYRPGYGPVLYDYWGQGTQVTVSS | high polyreactivity
41 | QVQLVESGGGLVQAGGSLRLSCAASGLTYAYNAMGGSRQAPGKERELVAAISKRGGSTYYADSVKGRFTISRDNAKNTVYLQMNSLKPEDTAVYYCAAGTYAIHDYWGLGTQVTVSS | high polyreactivity
42 | QVQLVESGGGLVQAGGSLRLSCAASGSISVFYAMGWYRQAPGKEREFVAAISWRGGRTYYEDSVKARFTISRDNANNTVYLQMNSLKPEDTAVYYCAKDIVRGRSSRYDYWGQGTQVTVSS | high polyreactivity
43 | QVQLVESGGGLVQAGGSLRLSCAASGRTFSVNDMGWYRQAPGKERELVAAISFSGGSTYYADSVKGRFTISRDNAKNTVYLQMNSLKPEDTAVYYCAARVRWWSPGGYWGQGTQVTVSS | high polyreactivity
